# The DeepSol protein solubility set
# Assay: soluble on expression in E. coli; label from the status in PepcDB or PDB records
row,Sequence,soluble on expression in E. coli
1,DGTVVNYVGFQRDITERKEHERRLKALSESVQDLLQADTREEVAEIGVETARTVLGLEANTIHLYNEAERTLEPVAASDGIYDLLEDLPTFTPGDSIAWRVYESGDALAVDDVHADPDIYNPDTPIKSELYLPLGRHGILLAGSGTNAAFDQR,not soluble
2,DGVGGDPAVALPHRRFEYKYSFKGPHLVQSDGTVPFWAHAGNAIPSSDQIRVAPSLKSQRGSVWTKTKAAFENWEVEVTFRVTGRGRIGADGLAIWYAENQGLEGPVFGSADLWNGVGIFFDSFDNDGKKNNPAIVIIGNNGQIHYDHQNDGASQALASCQRDFRNKPYPVRAKITYYQNTLTVMINNGFTPDKNDYEFCAKVENMIIPAQGHFGISAATGGLADDHDVLSFLTFQLTEPGKEPPTPDKEISEKE,soluble
3,DGVRIFNSLAATVYADSTAAHADMQGRRLKAVSDGLDHNGTGLRVIAQTQQDGGTWEQGGVEGKMRGSTQTVGIAAKTGENTTAAATLGMGRSTWSENSANAKTDSISLFAGIRHDAGDIGYLKGLFSYGRYKNSISRSTGADEHAEGSVNGTLMQLGALGGVNVPFAATGDLTVEGGLRYDLLKQDAFAEKGSALGWSGNSLTEGTLVGLAGLKLSQPLSDKAVLFATAGVERDLNGRDYTVTGGFTGATAATGKTGARNMPHTRLVAGLGADVEFGNGWNGLARYSYAGSKQYGNHSGRVGVGYRF,soluble
4,DHAAPLIFLIAGTGAPYNSTINEFLKKLYYGAGYHVVQLSSPTSYDFMSSASRFATPGVSTEDAEDLYRVMQAIRAQQAQLPVTDYYLTGYSLGALNAAFVSKLDETRRSFNFKKVLLLNPPVNLYTSISNLDKLVQTNVKGINNTTTFYELVLAKLTRYFRQKGYIDLNDALLFDFQQSKQHLTNEQMAMLIGTSFRFSSADIAFTSDLINRRGLIIPPKFPISEGTSLTPFLKRALQCDFDCYLTEQVIPMWRARTDGGSLLQLVDQVSLYALKDYLHSNTKIAVMHNADDVILGAGDLGFLRKTFGDRLTVYPYGGHCGNLNYRVNTDAMLEFFRG,not soluble
5,DIQMTQSPSTLSASIGDRVTITCRASEGIYHWLAWYQQKPGKAPKLLIYKASSLASGAPSRFSGSGSGTDFTLTISSLQPDDFATYYCQQYSNYPLTFGGGTKLEIKRTVAAPSVFIFPPSDEQLKSGTASVVCLLNNFYPREAKVQWKVDNALQSGNSQESVTEQDSKDSTYSLSSTLTLSKADYEKHKVYACEVTHQGLSSPVTKS,soluble
6,DKKLAIVIHDNPDPDAISSGLALKEIAKSLGVEASILYHGRIGHQENKAFVNLLGIDLGKMEEHDLKDFDEIALIDCSIPGVNNMVPPNSYVGIVIDHHPPGETEIKAEYIDIRPNFGATATIMTKYLQQLNINISKTLATALLYGIRTDTQDFKRKTDPADLSAASYLYPLSNHGILDQLEQPSMAI,not soluble
7,DNVKYVSSVQRDKELLHAKYGKDIDKAEDVAKEYPSLESIVAKHPDIFVAGWNYGFSEEKNLTPDALKDQGIDSYILSESCRQEGSEKRGLYDPWEAVKMDISNIGKITSHADTADSVVKDIDSRLETLKKAPQADKAPTAFVFDSGTDTVFTSGKFGAPQAIIEAAGGRNGAENVEDTWTTVSWENLAASKPDVFVFVDYPGQEFEEKIAALRSNPATKNLPAVKENRFINLPYAMWTSGPLNIDAAEQMRKGFEKFGLVPSSEIKPSLELPASVPGQNYYK,not soluble
8,DSLVFVQTDKSIYKPGQTVKFRVVSMDENFHPLNELIPLVYIQDPKGNRIAQWQSFQLEGGLKQFSFPLSSEPFQGSYKVVVQKKSGGRTEHPFTVEEFVLP,soluble
9,DSTFTNISLADDIDHSSRILYPRPKSLLPKMMNADMDVDAENQVELEEKTRLINQVLELQHTLEDLSARVDAVKEENLKLKSENQVLGQYIENLMSASSVFQTTDTKSKRK,not soluble
10,DTFIGWEPEVTHKKYFAMLDTISQVQGVPEPIIEAVAPLFFANNADQVHPELVASFKQSLESLTGERAVEVARIGRMVFGRRDVIEDAEKFALPTLIAVGREDKPRPVFESYLMHDCITGSELVEIPEAGHISSLEQPEFVNQMLLSFLNKVHA,not soluble
11,DTTQNLMIEGDNLEVLKLLQKSYAGKIKLIYIDPPYNTGKDFVYPDDFKDNIRNYLELTGQVEGGRKISSNTEASGRFHTDWLNMMYPRLKIARQLLSPTGVIAVHIDEHELEALVIVLRDLFGEENELGVTIWDKRNPKGDSRGIAYQHESLVLFARDAEELFARSPVRRAKRNAERMLNAASRFVTECGSIAEARAAYRSWVKSQSTLSGGESMYDKLSETGRVYRLVSMAWPNKKRAPADYFVPLKHPITGKDCPIPERGWRNPPATMKKLLEDGLIEFGPDEIMQPQRIYFLDENMYENVPSIVPFGGSDDELLKELSVPFEQPKPVDFSVQVISWCSSKDEIVMDFFAGSGTTGHAVMAQNAADGGNRRYILVQLPEPLDPENKDQKVAAEFCDKLGKPRTIAELTKERLRRAAKKIKEENPLFAGDLGFRVFKLDSSNIRA,not soluble
12,DVFVYGSFQEPSVVNLILECSPVMVPAQLHGYHVYRLKGRLHACISPSENGLINGKILTGLTDSQLENLDMIEGSEYVRKTVEVVLTDTSEKKQVETYVWANKDDPNLYGEWDFEEWRRLHMDKFIEASTKFIEWKKNPDG,not soluble
13,DVQLQQSGPGLVAPSQSLSITCTVSGFSLTDYGVNWVRQSPGKGLEWLGVIWGDGITDYNSALKSRLSVTKDNSKSQVFLKMNSLQSGDSARYYCVTGLFDYWGQGTTLTVSSASGADHHHHHH,soluble
14,EAVIATDEMNVRSGPGLSYGITAEVKKGERYPILKEDGDWVQIQLGSGEKGWVVSWLITKEDQASTSSSGSSDTVTSTDPDLRMRSGPGTSYEVIGKFPQGSQASVIDKDSGWIKISYHSATGWVSSEYVTSGGSSSASDESDQTEDSGASTTGTVGVSSLNVRASASHDAAIITKLDRGTKLTVLNEKNGWAHIEVNGLKGWVASHYLLTSSVPADDSANAGSSSSAKKAYIMYGGTNLRSDASTSASIVERAAKGDSYTITGSKGSWYEIKLDNGQTAYVANWVVQTSKSAEEAGEPPVSDSPSGNGSLNNKTIIVDPGHGGKDSGTIGYSGKFEKNLTIKTAKLLASKLRSAGADVYVTRQDDTFVSLQSRVSTSHYRNADAFISIHYDSYADTSTRGSTAYYYSPAKDQELASDVHSEVVKRSSIPDRGVLFGDYYVLRENRQPAMLYELGYVSHPQEEAIVHSNSYQEKVTDGIESGLEKYF,not soluble
15,EDAALREEAKGLFEVIPMQAPQLADNNTVTRDKIDLGAMLFFDPRMSKSGVFSCQSCHNVGLGGVDGLETSIGHGWQKGPRNAPTALNAVFNVAQFWDGRAPDLAAQAKGPVQAGVEMNNTPENLVATVQSMPGYVEAFAKAFPGQKDPISFDNFALAVEAFEATLITPNSKFDQWLMGADGAMSADEKAGLKLFIDTGCAACHNGINIGGNGYYPFGVVEKPGAEVLPAGDKGRFAVTATADDEYVFRAGPLRNIALTAPYFHSGKVWDLREAVSVMANSQLGATLDDTQVDQITAFLGTLTGEQPEVVHPILPVRSAQTPRPEHMN,soluble
16,EDKIMSYNAFFWMWVHDMLIDSIKWRDEHGRCINKDKGKTCIKGCNKKCICFQKWVEQKKTEWGKIKDHFRKQKDIPKDWTHDDFLQTLLMKDLLLEIIQDTYGDANEIKRIEALLEQAGVGGIDFAALAGLYTKGFVAEKDTTIDKLLQHEQKEADKCLKTHTDDTCPPQEDRSVARS,soluble
17,EEALIKIKQQEIVKNLPANAALVQLKYAGKTTDEPILNNLYKKYQVTANILYGNIEILEKTPVGEMIVILEGAATNIDQALNDLTHSDLTVTVLKRGV,not soluble
18,EGDPENGEKLQITIRRGKDGFGFTICCDSPVRVQAVDSGGPAERAGLQQLDTVLQLNERPVEHWKCVELAHEIRSCPSEIILLVWRV,soluble
19,EGQEKFKDLTYIAASVCNTEHAFITLLNKDNLVFLSSFKPPLAEITRDLSFCEITIQSDTVHEVQDARVHERFSNNPYVIGEPYLRYYCGAPLIDENGYKLGALCVLDTNPRTLTENQKKSLVLLAKQV,not soluble
20,EGRATHLQGLVVDITERKEAQKMLEIQRELGAKLNTTWNLHAILNMVLDACLQINGIDAGGVYIRDELLDQINLVQSRGISPEFKEKVSRFKADSNEAKQVWAEKPIYSMDFYSDKMAEAARKEGIKAVAVIPLKYSNEIIGSLNFASH,not soluble
21,EGVAVMLFYSVGELFQDKAIDKAKRNISALLDVRPEKAVVVRSNEIVTVDPRSVLINEIIEIKAGERVPLDGVMLDEVAAFNTAALTGESVPRDISRGEEVLAGMIVTDKVIRMKVTKPFDKSALARILELVE,not soluble
22,EKMTRDEIAYMLTNSEETLDADEIEMLQGVFSLDELMAREVMVPRTDAFMVDIQDDSQAIIQSILKQNYSRIPVYDGDKDNVIGIIHTKSLLKAGFVDGFDNIVWKRILQDPLFVPETIFVDDLLKELRNTQRQMAILLDEYGGMAGLVTLEDLLEEIVGEID,not soluble
23,ELISRYPERYCRASSGRCTFAFHPAPEKSFNRGFTNLLLSGKRDTNTLITPESNKSKGAYIGCVTAVNRDKVSIRLRPDNTGAKPSLANGDGLYLLHPDGNMSGTRINVVLPDGSIQVDNPAGIVSGTNVFRNYDIRFEKALSQDNSAVRLIPVSLTLTDVPDGFSLSIEADCYPSAKATITAAHEPATRFDEEQIRKNLTKLGGTPLEAVSVDIRLSHDYFIPLSLIGRLRRDAVQSFIEKASSMPEREEKPVVQRRISPAASSLQEGEQSLSFLANVANKEAETFYRQMGYTSIAPAFEHSHPQGVPLMFSKHCLRYHLGYCPTLQHKESPYREPYYLIHGETRLRLRFDCQHCQMLVYHDSEGIKQT,not soluble
24,ENSLIGLNDHTLVTEDDGRRWVTHEPALVYFHNKYWFNIIAMIRNDGVSYYCNLASPYVMDKEALKYIDYDLDIKVLTNGTKHLLDADEYIAHGQLWNYP,not soluble
25,ERVKWRKQIEASGARLKSMIDQTPAPTLVLMGDNLVIEQVNTSMLKLLGHEENIVGIPLLTLMPELKGQYIWEQVEKVYREGIPFDQSEVRVSHKRTGMMEDYYYNIAYRPLKEDGRITGMIQVAIDVT,not soluble
26,EVLPNFAENARPIEGKKPYTVLQLAGRAVYIKDSCNACHSQLIRPFKSETDRYGMYSVSGEFAYDRPFLWGSKRTGPDLARVGNYRTADWHENHMWDPTSVVPDSIMPSYKHMFKNNADIETAYAEALTVKKVFNVPYDAENGTKLGSWEDAQAEVKAEAQAIVDQMKNQEVKDAFAKGEIKEIVALIAYLNSLK,not soluble
27,EVQLVESGGGLVKPGGSLKLSCAASGFAFSSYDMSWVRQTPEKRLEWVAYISSGGGSTYYPDTVKGRFTISRDNAKNTLYLQMSSLKSEDTAMYYCARPDYRSYAMDYWGQGTSVTVSSAKTTAPSVYPLAPVCGDTTGSSVTLGCLVKGYFPEPVTLTWNSGSLSSGVHTFPAVLQSDLYTLSSSVTVTSSTWPSQSITCNVAHPASSTKVDKKIEPRGP,soluble
28,EVSTTQNDTLKVMTHNVYMLSTNLYPNWGQTERADLIGAADYIKNQDVVILNEVFDNSASDRLLGNLKKEYPNQTAVLGRSSGSEWDKTLGNYSSSTPEDGGVAIVSKWPIAEKIQYVFAKGCGPDNLSNKGFVYTKIKKNDRFVHVIGTHLQAEDSMCGKTSPASVRTNQLKEIQDFIKNKNIPNNEYVLIGGDMNVNKINAENNNDSEYASMFKTLNASVPSYTGHTATWDATTNSIAKYNFPDSPAEYLDYIIASKDHANPSYIENKVLQPKSPQWTVTSWFQKYTYNDYSDHYPVEATISMK,soluble
29,EVVVVGYGTQKKVNLTGAVSAVSAEDLASKPVMSTAQALAGLAPGLSVLQTSGRPGQGATVKIRGTGTFSKAGTDPLVLIDGLSGNIDDVDPNDIQSISFLKDAASASIYGNRAANGVILIETKKGA,not soluble
